Measurements: US20250320281A1

Columns and labels:
Test in all cases: cell-based or functional assay
[1] = target: HIV-1 Env of pseudovirus MGRM-AG-002 (subtype AG) (HIV-1)
[2] = target: HIV-1 Env of isolate MG RM-D-018 (HIV-1)
[3] = target: HIV-1 Env of pseudovirus MGRM-AG-009 (subtype AG) (HIV-1)
[4] = target: HIV-1 Env of isolate MGRM-F1-023 (HIV-1)
[5] = target: HIV-1 Env of pseudovirus MGRM-AG-011 (subtype AG) (HIV-1)
[6] = target: HIV-1 Env of isolate MGRM-F1-012 (HIV-1)
[7] = target: HIV-1 Env of isolate MG RM-D-013 (HIV-1)
[8] = target: HIV-1 Env of pseudovirus MGRM-AE-008 (subtype AE) (HIV-1)
[9] = target: HIV-1 Env of isolate MGRM-F1-021 (HIV-1)
[10] = target: HIV-1 Env of isolate MG RM-D-014 (HIV-1)
[11] = target: HIV-1 Env of isolate MGRM-C-005 (HIV-1)
[12] = target: HIV-1 Env of isolate MGRM-F1-010 (HIV-1)
[13] = target: HIV-1 Env of isolate MGRM-F1-004 (HIV-1)
[14] = target: HIV-1 Env of isolate MG RM-D-019 (HIV-1)
[15] = target: HIV-1 Env of isolate MG RM-D-022 (HIV-1)
[16] = target: HIV-1 Env of isolate MGRM-F1-018 (HIV-1)
[17] = target: HIV-1 Env of isolate MGRM-F1-016 (HIV-1)
[18] = target: HIV-1 Env of pseudovirus MGRM-AG-012 (subtype AG) (HIV-1)
[19] = target: HIV-1 Env of isolate MG RM-D-021 (HIV-1)
[20] = target: HIV-1 Env of pseudovirus MGRM-AG-001 (subtype AG) (HIV-1)
[21] = target: HIV-1 Env of pseudovirus MGRM-AG-003 (subtype AG) (HIV-1)
[22] = target: HIV-1 Env of pseudovirus MGRM-AG-005 (subtype AG) (HIV-1)
[23] = target: HIV-1 Env of isolate MG RM-D-016 (HIV-1)
[24] = target: HIV-1 Env of isolate MG RM-D-024 (HIV-1)
[25] = target: HIV-1 Env of isolate MGRM-F1-014 (HIV-1)
[26] = target: HIV-1 Env of isolate MGRM-F1-017 (HIV-1)
[27] = target: HIV-1 Env of isolate MG RM-D-029 (HIV-1)
[28] = target: HIV-1 Env of isolate MGRM-F1-022 (HIV-1)
[29] = target: HIV-1 Env of isolate MGRM-F1-006 (HIV-1)
[30] = target: HIV-1 Env of pseudovirus MGRM-AG-013 (subtype AG) (HIV-1)
[31] = target: HIV-1 Env of isolate MG RM-D-026 (HIV-1)
[32] = target: HIV-1 Env of isolate MGRM-F1-008 (HIV-1)
[33] = target: HIV-1 Env of isolate MG RM-D-012 (HIV-1)
[34] = target: HIV-1 Env of isolate MGRM-F1-013 (HIV-1)
[35] = target: HIV-1 Env of isolate MGRM-F1-020 (HIV-1)
[36] = target: HIV-1 Env of isolate MG RM-D-020 (HIV-1)
[37] = target: HIV-1 Env of pseudovirus MGRM-AE-007 (subtype AE) (HIV-1)
[38] = target: HIV-1 Env of isolate MG RM-D-011 (HIV-1)
[39] = target: HIV-1 Env of isolate MG RM-D-028 (HIV-1)
[40] = target: HIV-1 Env of pseudovirus MGRM-AG-008 (subtype AG) (HIV-1)
[41] = target: HIV-1 Env of isolate MGRM-F1-015 (HIV-1)
[42] = target: HIV-1 Env of pseudovirus MGRM-AG-006 (subtype AG) (HIV-1)

Sequence of PGT-142 (4995_E20) (antibody) (VH): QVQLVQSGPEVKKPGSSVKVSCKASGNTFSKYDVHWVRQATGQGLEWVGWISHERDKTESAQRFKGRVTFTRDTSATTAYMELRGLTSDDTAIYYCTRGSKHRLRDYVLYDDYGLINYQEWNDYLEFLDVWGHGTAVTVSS
Sequence of PGT-142 (4995_E20) (antibody) (VL): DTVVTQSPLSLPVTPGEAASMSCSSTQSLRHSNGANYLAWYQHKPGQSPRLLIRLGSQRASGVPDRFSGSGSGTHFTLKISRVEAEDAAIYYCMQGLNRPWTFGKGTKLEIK
Sequence of PGT-141 (4964_G22; 4993_K13) (antibody) (VH): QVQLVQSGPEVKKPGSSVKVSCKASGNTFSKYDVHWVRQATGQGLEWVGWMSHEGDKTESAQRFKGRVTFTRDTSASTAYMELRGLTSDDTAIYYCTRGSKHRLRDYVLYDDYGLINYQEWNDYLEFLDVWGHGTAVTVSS
Sequence of PGT-143 (4980_N08) (antibody) (VH): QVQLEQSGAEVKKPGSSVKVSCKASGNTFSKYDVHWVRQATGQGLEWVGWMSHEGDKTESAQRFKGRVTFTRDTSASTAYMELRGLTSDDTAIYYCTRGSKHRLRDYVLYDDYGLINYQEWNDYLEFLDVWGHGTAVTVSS
Sequence of PGT-143 (4980_N08) (antibody) (VL): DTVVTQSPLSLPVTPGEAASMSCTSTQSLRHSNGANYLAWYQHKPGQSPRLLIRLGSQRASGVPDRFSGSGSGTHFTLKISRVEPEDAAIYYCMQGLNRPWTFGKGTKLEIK

## PGT-141 (4964_G22; 4993_K13) (antibody)
[1]
  IC50, pseudovirus neutralization: 0.049 µg/mL
[2]
  IC50: > 50 µg/mL
[3]
  IC50, pseudovirus neutralization: > 50 µg/mL
[4]
  IC50: 0.307 µg/mL
[5]
  IC50, pseudovirus neutralization: 0.118 µg/mL
[6]
  IC50: > 50 µg/mL
[7]
  IC50: 0.179 µg/mL
[8]
  IC50, pseudovirus neutralization: 0.101 µg/mL
[9]
  IC50: > 50 µg/mL
[10]
  IC50: 10 ng/mL
[11]
  IC50, pseudovirus neutralization: 8.83 µg/mL
[12]
  IC50: > 50 µg/mL
[13]
  IC50: 0.021 µg/mL
[14]
  IC50: 1.66 µg/mL
[15]
  IC50: > 50 µg/mL
[16]
  IC50: 0.785 µg/mL
[17]
  IC50: > 50 µg/mL
[18]
  IC50, pseudovirus neutralization: > 50 µg/mL
[19]
  IC50: > 50 µg/mL
[20]
  IC50, pseudovirus neutralization: 18 µg/mL
[21]
  IC50, pseudovirus neutralization: > 50 µg/mL
[22]
  IC50, pseudovirus neutralization: 0.497 µg/mL
[23]
  IC50: > 50 µg/mL
[24]
  IC50: > 50 µg/mL
[25]
  IC50: 1 ng/mL
[26]
  IC50: 30.8 µg/mL
[27]
  IC50: 0.057 µg/mL
[28]
  IC50: 0.114 µg/mL
[29]
  IC50: 8.99 µg/mL
[30]
  IC50, pseudovirus neutralization: > 50 µg/mL
[31]
  IC50: 32.5 µg/mL
[32]
  IC50: 0.193 µg/mL
[33]
  IC50: > 50 µg/mL
[34]
  IC50: 0.043 µg/mL
[35]
  IC50: 1.15 µg/mL
[36]
  IC50: > 50 µg/mL
[37]
  IC50, pseudovirus neutralization: 33.1 µg/mL
[38]
  IC50: > 50 µg/mL
[39]
  IC50: < 50 µg/mL
[40]
  IC50, pseudovirus neutralization: 19.2 µg/mL
[41]
  IC50: > 50 µg/mL
[42]
  IC50, pseudovirus neutralization: > 50 µg/mL

## PGT-143 (4980_N08) (antibody)
[1]
  IC50, pseudovirus neutralization: 0.076 µg/mL
[2]
  IC50: > 50 µg/mL
[3]
  IC50, pseudovirus neutralization: > 50 µg/mL
[4]
  IC50: 0.972 µg/mL
[5]
  IC50, pseudovirus neutralization: 0.156 µg/mL
[6]
  IC50: > 50 µg/mL
[7]
  IC50: 0.386 µg/mL
[8]
  IC50, pseudovirus neutralization: 0.135 µg/mL
[9]
  IC50: > 50 µg/mL
[10]
  IC50: 9 ng/mL
[12]
  IC50: > 50 µg/mL
[13]
  IC50: 0.036 µg/mL
[14]
  IC50: 0.277 µg/mL
[15]
  IC50: > 50 µg/mL
[16]
  IC50: 0.701 µg/mL
[17]
  IC50: > 50 µg/mL
[18]
  IC50, pseudovirus neutralization: > 50 µg/mL
[19]
  IC50: > 50 µg/mL
[20]
  IC50, pseudovirus neutralization: 18.9 µg/mL
[21]
  IC50, pseudovirus neutralization: > 50 µg/mL
[22]
  IC50, pseudovirus neutralization: 1.11 µg/mL
[23]
  IC50: > 50 µg/mL
[24]
  IC50: > 50 µg/mL
[25]
  IC50: 1 ng/mL
[26]
  IC50: 26.3 µg/mL
[27]
  IC50: 0.2 µg/mL
[28]
  IC50: 0.082 µg/mL
[29]
  IC50: 12.3 µg/mL
[30]
  IC50, pseudovirus neutralization: > 50 µg/mL
[31]
  IC50: 44.6 µg/mL
[32]
  IC50: 0.189 µg/mL
[33]
  IC50: > 50 µg/mL
[34]
  IC50: 0.013 µg/mL
[35]
  IC50: 0.98 µg/mL
[36]
  IC50: > 50 µg/mL
[37]
  IC50, pseudovirus neutralization: 13.6 µg/mL
[38]
  IC50: > 50 µg/mL
[39]
  IC50: > 50 µg/mL
[40]
  IC50, pseudovirus neutralization: 34 µg/mL
[41]
  IC50: > 50 µg/mL
[42]
  IC50, pseudovirus neutralization: > 50 µg/mL

## PGT-142 (4995_E20) (antibody)
[1]
  IC50, pseudovirus neutralization: 0.044 µg/mL
[2]
  IC50: > 50 µg/mL
[3]
  IC50, pseudovirus neutralization: > 50 µg/mL
[4]
  IC50: 0.602 µg/mL
[5]
  IC50, pseudovirus neutralization: 0.081 µg/mL
[6]
  IC50: > 50 µg/mL
[7]
  IC50: 0.221 µg/mL
[8]
  IC50, pseudovirus neutralization: 0.08 µg/mL
[9]
  IC50: > 50 µg/mL
[10]
  IC50: 5 ng/mL
[12]
  IC50: > 50 µg/mL
[13]
  IC50: 0.013 µg/mL
[14]
  IC50: 0.155 µg/mL
[15]
  IC50: > 50 µg/mL
[16]
  IC50: 0.404 µg/mL
[17]
  IC50: > 50 µg/mL
[18]
  IC50, pseudovirus neutralization: > 50 µg/mL
[19]
  IC50: > 50 µg/mL
[20]
  IC50, pseudovirus neutralization: 12.4 µg/mL
[21]
  IC50, pseudovirus neutralization: > 50 µg/mL
[22]
  IC50, pseudovirus neutralization: 0.383 µg/mL
[23]
  IC50: > 50 µg/mL
[24]
  IC50: > 50 µg/mL
[25]
  IC50: 1 ng/mL
[26]
  IC50: 23.5 µg/mL
[27]
  IC50: 0.192 µg/mL
[28]
  IC50: 0.04 µg/mL
[29]
  IC50: 12.9 µg/mL
[30]
  IC50, pseudovirus neutralization: 21.7 µg/mL
[31]
  IC50: 12.5 µg/mL
[32]
  IC50: 0.124 µg/mL
[33]
  IC50: > 50 µg/mL
[34]
  IC50: 0.023 µg/mL
[35]
  IC50: 0.824 µg/mL
[36]
  IC50: > 50 µg/mL
[37]
  IC50, pseudovirus neutralization: 6.7 µg/mL
[38]
  IC50: > 50 µg/mL
[39]
  IC50: > 50 µg/mL
[40]
  IC50, pseudovirus neutralization: 12.1 µg/mL
[41]
  IC50: > 50 µg/mL
[42]
  IC50, pseudovirus neutralization: > 50 µg/mL
